Assay results: the supplement of paper PMC9942255
Several values for one entry are separate records, joined by “and”; a condition that tells them apart may be missing. Equal entries are not always repeated.

Tested on: Bacillus subtilis DB104 (SP-AmyQ fusion secretion)
Test: AmyQ secretion efficiency, weighted average sort bin (1 = best secretion, 10 = worst) (bin number (weighted average, 1-10)); higher = lower secretion efficiency
Outline: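 The secretion score gives the average bin number weighted by read frequency and normalised to beads per bin, with low-abundance sequences excluded. Bins were 10 equally populated green/red fluorescence ratio fractions of occupied ~65 nL alginate beads, sorted by large-particle flow cytometry. The beads held fluorescein-starch and about 0.3 cells each of an amyE-integrated B. subtilis DB104 library fusing designed signal peptides to mature AmyQ, and they were grown about 13 h at room temperature and stained with nile red before sorting and Illumina sequencing.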

Sequence | AmyQ secretion efficiency
MKNMSCKLVVSVTLFFSFLTIGPLAHSQNS | 2.01
MKNMSCKLVVSVTLFFSFLTIGPLAHTQNS | 4.17
MKNMSCKLVVSVTLFFSFLTIGPLAHVQNS | 4.29
MKNMSCKLVVSVTLFFSFLTIGPLAHWQNS | 5.85
MKNMSCKLVVSVTLFFSFLTIGPLAHYQNS | 6.66
MKNMSCKLVVSVTLFFSFLTIGPLAPVGVSPVAHAQNS | 1.75
MKNMSCKLVVSVTLFFSFLTIGPLCHAQNS | 1.32
MKNMSCKLVVSVTLFFSFLTIGPLFHAQNS | 5.19
MKNMSCKLVVSVTLFFSFLTIGPLGHAQNS | 2.46
MKNMSCKLVVSVTLFFSFLTIGPLHHAQNS | 5.75
MKNMSCKLVVSVTLFFSFLTIGPLIHAQNS | 1.06
MKNMSCKLVVSVTLFFSFLTIGPLLHAQNS | 1.77
MKNMSCKLVVSVTLFFSFLTIGPLMHAQNS | 1.39
MKNMSCKLVVSVTLFFSFLTIGPLNHAQNS | 5.54
MKNMSCKLVVSVTLFFSFLTIGPLQHAQNS | 5.15
MKNMSCKLVVSVTLFFSFLTIGPLSHAQNS | 2.11
MKNMSCKLVVSVTLFFSFLTIGPLTHAQNS | 1.52
MKNMSCKLVVSVTLFFSFLTIGPLVFPFAHAQNS | 4.97
MKNMSCKLVVSVTLFFSFLTIGPLVHAQNS | 1.05
MKNMSCKLVVSVTLFFSFLTIGPLYHAQNS | 5.32
MKNMSCKLVVSVTLFFTIGPLAHAQNS | 2.62
MKNMSCKTNLVVSVTLFFSFLTIGPLAHAQNS | 1.06
MKNMSCKTSGSTTGGTSFLTIGPLAHAQNS | 6.59
MKNMSCKYQQGVTLFFSFLTIGPLAHAQNS | 6.89
MKNMSKLVVSVTLFFSFLTIGPLAHAQNS | 1.41

Sequence | AmyQ secretion efficiency
MKNRKRKLVVSVTLFFSFLTIGPLAHAQNS | 1.21
MKQCQKSRKRRRQFLVSLIIGTFVISVPFMANAQSD | 1.71
MKQFAITLSVLCALILLVPTLLVIPFFHNKEAGASV | 6.58
MKQFAITLSVLCALILLVPTLLVIPFQHNKAAGASV | 4.37
MKQFAITLSVLCALILLVPTLLVIPFQHNKEAKASV | 5.85
MKQFAITLSVLCALILLVPTLLVIPFQHNKEAMASV | 6.87
MKQFAITLSVLCALILLVPTLLVIPFQHNKEAPASV | 8.36
MKQFAITLSVLCALILLVPTLLVIPFQHNKMAGASV | 5.07
MKQFAITLSVLCALILLVPTLLVIPFVSAAEAGASV | 3.34
MKQFAITLSVLCALILLVPTLLVIPRRKKRHKKEAGASV | 5.51
MKQGKFSKRLILLLMLTLVVAPKEKAEAASS | 1.59
MKQGKFSRYYKSLLMLTLVVAPKEKAEAASS | 6.74
MKQGKFSSFLILLLMLTLVVAPKEKAEAASS | 2.33
MKQGKFSVFLILLLMLAPKEKAEAASS | 2.23
MKQGKFSVFLILLLMLTLVVAPKEKAEAAEE | 2.62
MKQGKFSVFLILLLMLTLVVAPKEKAEAASD | 1.02
MKQGKFSVFLILLLMLTLVVAPKEKAEHASS | 4.93
MKQGKFSVFLILLLMLTLVVAPKEKCEAASS | 1.62
MKQGKFSVFLILLLMLTLVVAPKEKEEAASS | 7.98
MKQGKFSVFLILLLMLTLVVRRRKKRKAEAASS | 7.96
MKQGKFSVFLILLLMLTLVVTIFAALVIAPKEKAEAASS | 3.57
MKQGKFSVKKKRKRMLTLVVAPKEKAEAASS | 5.83
MKQGKFSVKKRKLLMLTLVVAPKEKAEAASS | 8.14
MKQGKFVFLILLLMLTLVVAPKEKAEAASS | 1.74
MKQGRTFLTSFMLLAMTGQTALAKDV | 4.71

Sequence | AmyQ secretion efficiency
MKQIKKKRTSFMLLAMTGQTALAKDV | 6.55
MKQIMIFLMIFMLLAMTGQTALAKDV | 4.05
MKQIMIFLTSFMLLAMTGQTALAADE | 3.7
MKQIMIFLTSFMLLAMTGQTCLAKDV | 3.75
MKQIMIFLTSFMLLAMTGQTTLAKDV | 3.1
MKQIMIFLTSFMLLAMTGTTALAKDV | 3.67
MKQIMIFLTSFMLLARRRRKKALAKDV | 7.64
MKQIMIFLTSFMMTGQTALAKDV | 3.81
MKQIRKKRKKFMLLAMTGQTALAKDV | 7.04
MKQKRGRKACLILFSFTITTFINTETISAFSN | 3.84
MKQKRKIIGWILLLCIIPLFAFTVIASGKEV | 6.81
MKQRKRVSALTPSTTLAITAKAKEL | 7.26
MKQRRIMIFLTSFMLLAMTGQTALAKDV | 3.05
MKQTMIFLTSFMLLAMTGQTALAKDV | 3.23
MKQTRSKQSSFMLLAMTGQTALAKDV | 7.56
MKRCKRLIVCSLAAILLLIPSVSFAADS | 3.14
MKRCKRRRLIVCSLAAILLLIPSVSFAADS | 3.97
MKRFILVLSFLSIIVAYPIQINASPM | 2.47
MKRFILVLSFLSIIVAYPIQSNASPM | 5.96
MKRFILVLSFLSIIVAYPIQTNASPE | 2.06
MKRFILVLSFLSIIVAYPIQVNASPM | 3.06
MKRFILVLSFLSIIVKKRIQTNASPM | 7.76
MKRFILVLSFLSIIVKRRRRRTNASPM | 7.31
MKRFILVLSFLSIIVLVTSASSFLAYPIQTNASPM | 5.04
MKRFKKKKSFLSIIVAYPIQTNASPM | 5.88

Sequence | AmyQ secretion efficiency
MKRFLIGAGVAASGWFIADHQTHSQEM | 6.73
MKRFLIGAGVAAVILDDEEEADHQTHSQEM | 7.2
MKRFLIGAGVAAVILFSITFSGWFIADHQTHSQEM | 5.28
MKRFLIGAGVAAVILKRWFIARHQTHSQEM | 7.28
MKRFLIGAGVAAVILRKKKKAKHQTHSQEM | 6.98
MKRFLIGAGVAAVILSGWFIADHQFHSQEM | 5.93
MKRFLIGAGVAAVILSGWFIADHQKHSQEM | 5.36
MKRFLIGAGVAAVILSGWFIADHQTHGQEM | 5.37
MKRFLIGAGVAAVILSGWFIADHQTHKQEM | 4.69
MKRFLIGAGVAAVILSGWFIADHQTHSQEM | 7.62 and 6.01 and 6.59
MKRFLIGAGVAAVILSGWFIADHQTHVQEM | 6.76
MKRFLIGAGVAAVILSGWTIADHQTHSQEM | 5.66
MKRFSTAYKQQRQQCSAAVFLIGAPSRALGAEV | 7.51
MKRFSTAYLKKRKLCSAAVFLIGAPSRALGAEV | 6.51
MKRFSTAYLLLGILCSAAVFLIGAPSRALAAEV | 2.35
MKRFSTAYLLLGILCSAAVFLIGAPSRALCAEV | 3.3
MKRFSTAYLLLGILCSAAVFLIGAPSRALGADD | 3.2
MKRFSTAYLLLGILCSAAVFLIGAPSRALGAPD | 2.52
MKRFSTAYLLLGILCSAAVFLIGAPSRALGAPK | 1.81
MKRFSTAYLLLGILCSAAVFLIGAPSRALGAPV | 1.61
MKRFSTAYLLLGILCSAAVFLIGAPSRALGARR | 7.6
MKRFSTAYLLLGILCSAAVFLIGAPSRALGDED | 6.23
MKRFSTAYLLLGILCSAAVFLIGAPSRALGKKK | 7.04
MKRFSTAYLLLGILCSAAVFLIGAPSRALNAEV | 5.97
MKRFSTAYLLLGILCSAAVFLIGAPSRCLGAEV | 3.15

Sequence | AmyQ secretion efficiency
MKRFSTAYLLLGILCSAAVFLIGAPSRTLGAEV | 3.24
MKRFSTAYLLLGILCSAAVFLIGAPSSALGAEV | 3.5
MKRFSTAYLLLGILCSAAVFLIKRPSRALGAEV | 6.46
MKRFSTAYLLLGILCSAAVFLILSAGAPSRALGAEV | 3
MKRFSTAYLLLGILCSAAVFLIPQPGRALGAEV | 2.89
MKRFSTAYLLLLGILCSAAVFLIGAPSRALGAEV | 3.05
MKRFSTAYTTGGILCSAAVFLIGAPSRALGAEV | 8.46
MKRFSTLLLGILCSAAVFLIGAPSRALGAEV | 2.96
MKRILFLLSTLLIGIMLLTFAPSAFAKQD | 1.83
MKRILLSSALSFGMLISAVPALAAGT | 2.79
MKRIRILALGAALTIAPLSFASAEEN | 3.38
MKRIRIPMKLALGAALTIAPLSFASAEEN | 4.57
MKRIRIPMTLALGAALTIAPLDEDASAEEN | 3.3
MKRIRIPMTLALGAALTIAPLDEEDDDASAEEN | 5.27
MKRIRIPMTLALGAALTIAPLDKASAEEN | 3.1
MKRIRIPMTLALGAALTIAPLKRKASAEEN | 7.5
MKRIRIPMTLALGAALTIAPLLSFASAEEN | 4.21
MKRIRIPMTLALGAALTIAPLSASAEEN | 2.88
MKRIRIPMTLALGAALTIAPLSFAFTASAEEN | 3.82
MKRIRIPMTLALGAALTIAPLSFASAADE | 2.12
MKRIRIPMTLALGAALTIAPLSFASAAKR | 4.18
MKRIRIPMTLALGAALTIAPLSFASAAPK | 1.85
MKRIRIPMTLALGAALTIAPLSFASAASN | 1.02
MKRIRIPMTLALGAALTIAPLSFASAATD | 2.9
MKRIRIPMTLALGAALTIAPLSFASAEED | 3.29
